The source of these data is paper PMC3032569 (The Biochemical journal, 2009).

The target in the assay is T1, E. coli TonB C-terminal domain (TonB CTD, residues 103-239) (E. coli, UniProt P02929 103-239).
T1 sequence (looked up): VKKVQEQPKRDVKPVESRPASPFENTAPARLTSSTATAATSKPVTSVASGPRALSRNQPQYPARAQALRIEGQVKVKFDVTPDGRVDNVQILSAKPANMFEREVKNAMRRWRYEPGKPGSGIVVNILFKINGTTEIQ
Kind of assay: NMR titration.

Where no end group is shown, it is not given here.

For Ac-EDTITVTAAP [FhuA TonB box peptide], the binding result is “binds”.
